Results published in the Human Domainome abundance scans (Beltran et al. 2025).
± gives the uncertainty stated by the source.

B1: Steroid hormone receptor ERR2, residues 100 to 176; numbered along this chain, O95718 (parent)
chain: KRLCLVCGDIASGYHYGVASCEACKAFFKRTIQGNIEYSCPATNECEITKRRRKSCQACRFMKCLKVGMLKEGVRLD

Variants of: B1
Assay: abundance fitness (aPCA) (normalised: wild type 0, dead -1); higher = more abundant; growth selection in yeast, the domain comes from the species named
Settings: Homo sapiens

Variant | abundance fitness
KRLCLVCGDIASGYHYGVASCEACKAFFKRTIQGNIEYSCPATNECEICKRRRKSCQACRFMKCLKVGMLKEGVRLD | -0.948 ± 0.31
KRLCLVCGDIASGYHYGVASCEACKAFFKRTIQGNIEYSCPATNECEIAKRRRKSCQACRFMKCLKVGMLKEGVRLD | 0.189 ± 0.055
KRLCLVCGDIASGYHYGVASCEACKAFFKRTIQGNIEYSCPATNECEINKRRRKSCQACRFMKCLKVGMLKEGVRLD | 0.015 ± 0.11
KRLCLVCGDIASGYHYGVASCEACKAFFKRTIQGNIEYSCPATNECEIFKRRRKSCQACRFMKCLKVGMLKEGVRLD | -0.254 ± 0.17
KRLCLVCGDIASGYHYGVASCEACKAFFKRTIQGNIEYSCPATNECEIHKRRRKSCQACRFMKCLKVGMLKEGVRLD | -0.523 ± 0.17
KRLCLVCGDIASGYHYGVASCEACKAFFKRTIQGNIEYSCPATNECEIKKRRRKSCQACRFMKCLKVGMLKEGVRLD | -0.035 ± 0.099
KRLCLVCGDIASGYHYGVASCEACKAFFKRTIQGNIEYSCPATNECEIDKRRRKSCQACRFMKCLKVGMLKEGVRLD | 0.118 ± 0.11
KRLCLVCGDIASGYHYGVASCEACKAFFKRTIQGNIEYSCPATNECEISKRRRKSCQACRFMKCLKVGMLKEGVRLD | -0.164 ± 0.071
KRLCLVCGDIASGYHYGVASCEACKAFFKRTIQGNIEYSCPATNECEIWKRRRKSCQACRFMKCLKVGMLKEGVRLD | -0.199 ± 0.092
KRLCLVCGDIASGYHYGVASCEACKAFFKRTIQGNIEYSCPATNECEIVKRRRKSCQACRFMKCLKVGMLKEGVRLD | -0.138 ± 0.073
KRLCLVCGDIASGYHYGVASCEACKAFFKRTIQGNIEYSCPATNECEILKRRRKSCQACRFMKCLKVGMLKEGVRLD | -0.117 ± 0.087
KRLCLVCGDIASGYHYGVASCEACKAFFKRTIQGNIEYSCPATNECEIGKRRRKSCQACRFMKCLKVGMLKEGVRLD | -0.041 ± 0.059
KRLCLVCGDIASGYHYGVASCEACKAFFKRTIQGNIEYSCPATNECEIIKRRRKSCQACRFMKCLKVGMLKEGVRLD | -0.281 ± 0.12
KRLCLVCGDIASGYHYGVASCEACKAFFKRTIQGNIEYSCPATNECEIEKRRRKSCQACRFMKCLKVGMLKEGVRLD | -0.003 ± 0.095
KRLCLVCGDIASGYHYGVASCEACKAFFKRTIQGNIEYSCPATNECEIRKRRRKSCQACRFMKCLKVGMLKEGVRLD | -0.2 ± 0.062
KRLCLVCGDIASGYHYGVASCEACKAFFKRTIQGNIEYSCPATNECEIPKRRRKSCQACRFMKCLKVGMLKEGVRLD | -0.223 ± 0.088
KRLCLVCGDIASGYHYGVASCEACKAFFKRTIQGNIEYSCPATNECEIQKRRRKSCQACRFMKCLKVGMLKEGVRLD | -0.332 ± 0.15
KRLCLVCGDIASGYHYGVASCEACKAFFKRTIQGNIEYSCPATNECEITNRRRKSCQACRFMKCLKVGMLKEGVRLD | 0.071 ± 0.088

Variant | abundance fitness
KRLCLVCGDIASGYHYGVASCEACKAFFKRTIQGNIEYSCPATNECEITVRRRKSCQACRFMKCLKVGMLKEGVRLD | 0.118 ± 0.062
KRLCLVCGDIASGYHYGVASCEACKAFFKRTIQGNIEYSCPATNECEITLRRRKSCQACRFMKCLKVGMLKEGVRLD | -0.088 ± 0.063
KRLCLVCGDIASGYHYGVASCEACKAFFKRTIQGNIEYSCPATNECEITGRRRKSCQACRFMKCLKVGMLKEGVRLD | -0.102 ± 0.091
KRLCLVCGDIASGYHYGVASCEACKAFFKRTIQGNIEYSCPATNECEITTRRRKSCQACRFMKCLKVGMLKEGVRLD | 0.019 ± 0.059
KRLCLVCGDIASGYHYGVASCEACKAFFKRTIQGNIEYSCPATNECEITFRRRKSCQACRFMKCLKVGMLKEGVRLD | 0.047 ± 0.07
KRLCLVCGDIASGYHYGVASCEACKAFFKRTIQGNIEYSCPATNECEITARRRKSCQACRFMKCLKVGMLKEGVRLD | 0.126 ± 0.059
KRLCLVCGDIASGYHYGVASCEACKAFFKRTIQGNIEYSCPATNECEITIRRRKSCQACRFMKCLKVGMLKEGVRLD | 0.112 ± 0.065
KRLCLVCGDIASGYHYGVASCEACKAFFKRTIQGNIEYSCPATNECEITDRRRKSCQACRFMKCLKVGMLKEGVRLD | -0.055 ± 0.093
KRLCLVCGDIASGYHYGVASCEACKAFFKRTIQGNIEYSCPATNECEITCRRRKSCQACRFMKCLKVGMLKEGVRLD | -0.51 ± 0.2
KRLCLVCGDIASGYHYGVASCEACKAFFKRTIQGNIEYSCPATNECEITYRRRKSCQACRFMKCLKVGMLKEGVRLD | -0.128 ± 0.084
KRLCLVCGDIASGYHYGVASCEACKAFFKRTIQGNIEYSCPATNECEITQRRRKSCQACRFMKCLKVGMLKEGVRLD | 0.142 ± 0.085
KRLCLVCGDIASGYHYGVASCEACKAFFKRTIQGNIEYSCPATNECEITMRRRKSCQACRFMKCLKVGMLKEGVRLD | 0.098 ± 0.1
KRLCLVCGDIASGYHYGVASCEACKAFFKRTIQGNIEYSCPATNECEITERRRKSCQACRFMKCLKVGMLKEGVRLD | 0.224 ± 0.088
KRLCLVCGDIASGYHYGVASCEACKAFFKRTIQGNIEYSCPATNECEWTKRRRKSCQACRFMKCLKVGMLKEGVRLD | -0.227 ± 0.13
KRLCLVCGDIASGYHYGVASCEACKAFFKRTIQGNIEYSCPATNECEVTKRRRKSCQACRFMKCLKVGMLKEGVRLD | 0.007 ± 0.064
KRLCLVCGDIASGYHYGVASCEACKAFFKRTIQGNIEYSCPATNECEITKARRKSCQACRFMKCLKVGMLKEGVRLD | 0.002 ± 0.072
KRLCLVCGDIASGYHYGVASCEACKAFFKRTIQGNIEYSCPATNECEITKDRRKSCQACRFMKCLKVGMLKEGVRLD | -0.084 ± 0.13
KRLCLVCGDIASGYHYGVASCEACKAFFKRTIQGNIEYSCPATNECEITKCRRKSCQACRFMKCLKVGMLKEGVRLD | -0.803 ± 0.32
